Data taken from the RNAGym collection of RNA variant scans (doi:10.7554/elife.90254).

B1: LINE1-mini (parent)
chain: GGCAGAGCUCAACACAGCGUGGCAAAGUGGCUGUGGCUAGACUGCC

Variants of: B1
Experiment: self-cleavage, relative activity (ratio to wild type); higher = more cleavage; in vitro, sequencing; the parent is a self-cleaving ribozyme

In order of falling self-cleavage:
1. UGCAGAGCUCAACACAGCGUAGCAAAGUGGCUGUGGCUAGACUGCC  0.77
2. UGCAGAGCUCAACACAGCGUGGCAAAGUGGCUGUGGCUAGACUGCG  0.74
3. UGCAGAGCUCAACACAGCGUGGCAAAGUGUCUGUGGCUAGACUGCC  0.59
4. UGCAGAGCUCAACACAGCAUGGCAAAGUGGCUGUGGCUAGACUGCC  0.57
5. UGCAGAGCUCAACACAGCGUGGCAAAGUGGCUGUGGCUAGACUGCA  0.53
6. UGCAGAGCUCAACACAGCGUGGCAAAGUAGCUGUGGCUAGACUGCC  0.44
7. UGCAGAGCUCAACACAGCGUGGCAAAGUGACUGUGGCUAGACUGCC  0.43
8. UGCAGAGCUCAACACAGCGUGGCAAAGUGGCUGUGGCUAGACUGCU  0.43
9. UGCAGAGCUCAACACAGCGUGUCAAAGUGGCUGUGGCUAGACUGCC  0.43
10. UGCAGAGCUCAACACAGCGUUGCAAAGUGGCUGUGGCUAGACUGCC  0.41
11. UGCAGAGCUCAACACAGCGUCGCAAAGUGGCUGUGGCUAGACUGCC  0.39
12. UACAGAGCUCAACACAGCGUGGCAAAGUGGCUGUGGCUAGACUGCC  0.38
13. UGCAGAGCUCAACACAGCGUGGCAAAGUUGCUGUGGCUAGACUGCC  0.38
14. UGCAGAGCUCAACACAGCGUGGCAAAGUGGCUGUGGCUAGACUGUC  0.38
15. UGCAGAGCUCAACACAGCGUGGCAAAAUGGCUGUGGCUAGACUGCC  0.36
16. UGCAGAGCUCAACACAGCGAGGCAAAGUGGCUGUGGCUAGACUGCC  0.31
17. UGCAGAGCUCAACACAGCGUGGCAAAGUGCCUGUGGCUAGACUGCC  0.27
18. UGCAGAGCUCAACACAGCGUGGCAAACUGGCUGUGGCUAGACUGCC  0.27
19. UGCAGAGCUCAACACAGCGUGGCAAAGUGGCUGUGGCUAGACUGAC  0.26
20. UGCAGAGCUCAACACAGCGUGGCAAAUUGGCUGUGGCUAGACUGCC  0.25
21. UGCAGAGCUCAACACAGCGUGACAAAGUGGCUGUGGCUAGACUGCC  0.25
22. UGCAGAGCUCAACACAGCGUGCCAAAGUGGCUGUGGCUAGACUGCC  0.23
23. UGCAGAGCUCAACACAGCGCGGCAAAGUGGCUGUGGCUAGACUGCC  0.22
24. UGCAGAGCUCAACACAGCGUGGCAAAGUCGCUGUGGCUAGACUGCC  0.2
25. UGCAAAGCUCAACACAGCGUGGCAAAGUGGCUGUGGCUAGACUGCC  0.2
26. UGCAGAGCUCAACACAGCCUGGCAAAGUGGCUGUGGCUAGACUGCC  0.2
27. UGCAGAGCUCAACACAGCGUGGCAAAGUGGCUGUUGCUAGACUGCC  0.17
28. UCCAGAGCUCAACACAGCGUGGCAAAGUGGCUGUGGCUAGACUGCC  0.16
29. UGCAGAGCUCAACACAGCGUGGCAAAGUGGCUGUGGCUAGACUUCC  0.15
30. UGCAGAGCUCAACACAGCGUGGCAAAGUGGCUGUGGCUAGACUCCC  0.14
31. UUCAGAGCUCAACACAGCGUGGCAAAGUGGCUGUGGCUAGACUGCC  0.13
32. UGCAGACCUCAACACAGCGUGGCAAAGUGGCUGUGGCUAGACUGCC  0.12
33. UGCAGAACUCAACACAGCGUGGCAAAGUGGCUGUGGCUAGACUGCC  0.11
34. UGCAGAGCUCAACACAGCGUGGCAAAGUGGCUGUGACUAGACUGCC  0.11
35. UGCAGAGCUCAACACAGCGUGGCAAAGUGGCUGUGUCUAGACUGCC  0.11
36. UGCAGAGCUCAACACAGCGUGGCAAAGUGGCUGUGGCUAGACUACC  0.11
37. UGCAGAGCUCAACACAGCUUGGCAAAGUGGCUGUGGCUAGACUGCC  0.11
38. UGCAGAGCUCAACACAGCGUGGCAAAGUGGCUGUGGCUAGACUGGC  0.1
39. UGCAGAGCUCAACACAACGUGGCAAAGUGGCUGUGGCUAGACUGCC  0.1
40. UGCAUAGCUCAACACAGCGUGGCAAAGUGGCUGUGGCUAGACUGCC  0.09
41. UGCAGAGCUCAACACAGCGUGGCAAAGUGGCUGUGGCUAUACUGCC  0.08
42. UGCAGAGCUCAACACAGCGUGGCAAAGUGGCUGUAGCUAGACUGCC  0.08
43. UGCAGAGCUCAACACAGCGUGGCAAAGUGGCUGUCGCUAGACUGCC  0.07
44. UGCAGAGCUCAACACAGCGUGGCAAAGUGGCUUUGGCUAGACUGCC  0.06
45. UGCAGAUCUCAACACAGCGUGGCAAAGUGGCUGUGGCUAGACUGCC  0.06
46. UGCAGAGCUCAACACAUCGUGGCAAAGUGGCUGUGGCUAGACUGCC  0.06
47. UGCAGAGCUCAACACACCGUGGCAAAGUGGCUGUGGCUAGACUGCC  0.05
48. UGCAGAGCUCAACACAGCGUGGCAAAGUGGCUAUGGCUAGACUGCC  0.04
49. UGCAGAGCUCAACACAGCGUGGCAAAGUGGCUGUGGCUAAACUGCC  0.04
50. UGCAGAGCUCAACACAGCGUGGCAAAGUGGCUGUGGCUACACUGCC  0.04
51. UGCAGAGCUCAACACAGCGUGGCAAAGUGGCUGUGCCUAGACUGCC  0.04
52. UGCACAGCUCAACACAGCGUGGCAAAGUGGCUGUGGCUAGACUGCC  0.04
53. UGCAGAGCUCAACACAGCGUGGCAAAGUGGCUCUGGCUAGACUGCC  0.03
54. UGCAGAGCACAACACAGCGUGGCAAAGUGGCUGUGGCUAGACUGCC  0.03
55. UGCAGAGCGCAACACAGCGUGGCAAAGUGGCUGUGGCUAGACUGCC  0.03
56. UGCAGAGCCCAACACAGCGUGGCAAAGUGGCUGUGGCUAGACUGCC  0.02
